Laboratory results as given in the nanobody polyreactivity screen of Harvey et al. (2022).

Experiment: yeast display, Sf9 membrane polyspecificity reagent, FACS + sequencing; frameworks hold sequencing errors
Outline: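 Polyreactivity labels are assigned by the sorting gate from which each nanobody was recovered. The gates were low and high (top ~1%), set on anti-HA fluorescence for expression and streptavidin fluorescence for reagent binding. Before sorting, galactose-induced (36–48 hours) yeast display cells were stained for 1 hour at 4 °C with 10% biotinylated, detergent-solubilized Sf9 membrane reagent.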

| Sequence | polyreactivity (PSR sort gate) |
| --- | --- |
| QVQLVESGGGLVQAGGSLRLSCAASGSIFSKYAMGRYRPAPGKERELVAAISRRGGDTYYADSVKGRFTISRDNAKNTVYLQMNSLKPEDTAVYYCAAYQYYLYDYWGQGTQVTVSS | high polyreactivity |
| QVQLVESGGGLVQAGGSLRLSCAASGSIFLVYGMGWYRQAPGKERELVAAITSSAGSTYYADSVKGRFTISRDNAKNTVYLQMNSLKPEDTAVYYCAARWAWSTYSYYYWGQGTQVTVSS | high polyreactivity |
| QVQLVESGGGLVQAGGSLRLSCGAYGLTFTYNTMGWYRPAPGKERELVAAITSSGGRTYYADSVKGRFTISRDHAKNTVYFQMNSLKPEDTAVYYCAKTKYYPKRDYYWGQGTLVTVSS | high polyreactivity |
| QDQLVESGGGLVQAGGSLRLSCAASGSTFVKNAMGWYRQAPGKERELVATISKSAGRTYYADSVKGRFTISRDNAKNTVYLQMNSLKPEDTAVYYCNVVQKRDFDYWGQGTQVTVSS | high polyreactivity |
| QVQLVESGGGLVQAGGSLRLSCAASGIIFYRYTKGWSRQAPGKETELVAGITRNGGSTYYADSVKGRFTISRVNAKNPVYLQMNSLKPEDTAVYYCATTLKFYWAKLDYRGQGTQVTVSS | low polyreactivity |
| QAQLQEIGGSLVQAGGGLRLSCEASGYISVGSVMGWYRQAPSKERELVASIDQGANTNYADSVKGRFTISRDNEKNNVYLQMKSLKPEDTAVYYCATETTYILNDWGQGTQVTVSS | low polyreactivity |
| QVQLVESGGGLVQAGGSLRLSCAASGRIFGLNAMGWYRQAPGKERELVAAITGSVGSTYYADSVKGRFTISRDNAKNTVYLQMNSLKPEDTAVYYCYAEYDSRRSSYYRHFNYWGQGTQVTVSS | low polyreactivity |
| QVQLVDSGGGLVQAGGSLRLSCAASGSIYGYYAMGWYRQAPGKELVLVAVITSGATTNYADSLKGRFSISRDNAKNTGYLQMNSLKPEDTAVYYCAARPQVKRGRYGYWGQGTQVTVSS | low polyreactivity |
| QVQLVESGGGLVQAGGSLRISCAASGRIFNSYAMGWYRQAPGKERELVASISTSGGSTYYADSVKGRFTISRDNAKNTVYLQMNSLKPEDTAVYYCARRYYPKFWYTYDSWGQGTQVTVSS | low polyreactivity |
| QVQLVESGGGLVQAGGSLRLSCAASGRTLRRYAMGWYRQAPGKERELVAAISRSGSSTYADSVKGRFTISRDNAKNTVSLQMNSLKPEDTAVYYCNAYQPRYGYWGQGTQVTVSS | high polyreactivity |
| QVLLQEIGGGLVQAGGSLRLCCAASGYISGDQFMGWYRQAPGKEPECVAGIGNGTNSNYADSVKGRFTTSRDNAKNTVYLQMNILKPEDTAVYYCAADPSDGSTLAFWGQGTQVTVSS | high polyreactivity |
| QVQLVESGGGLVQAGGSLRLSCAASGLIFTTNAMGWSRPAPGTEREFVAAISPSGGSTYYADSVKGRFTISRDNAKNTVYLQMNSLKPEDTAVYYCAARYSPVWHKYYYWGQGTQVTVSS | high polyreactivity |
| QVQLVESGGGLVQAGGSLRLSCAASGRTFTYYAMGWYRQAPGKERELVAAITSGGRTYYADSVKGRFTISRDNAKNTVYLQMNSLKPEDTAVYYCAARRIRDYYRSYDYWGQGTQVTVSS | high polyreactivity |
| QVQLVESGGGLVQAGGSLRLSCAASGSTFGWNAMGWYRQAPGKERELVAAISRSGGRTYYADSVKGRFTISRDNAKNTVYLQMNSLKPEDTAVYYCAADRSTTGGLRGYWGQGTQVTVSS | high polyreactivity |
| QVQHVESGGGLVQAGGSLRLSCAASGRIFIVNAMGWYRQAPGKERELVAAISYRGGSTYYADSVKGRFTISRDNAKNTVYLQMNSLKPEDTAVYYCAADRYSYLGYPYEYEYWGQGTQVTVSS | low polyreactivity |
| QVQLVESGGGLVQAGGSLRLSCAASGIIFSPYARGWYRQAPGKERELVAAISYSGGSTYYADSVKGRFTISRDNAKNTVYLQMNSLKPEDTAVYYCAVVYSYYLAVLGYWDYDYWGQGTQVTVSS | low polyreactivity |
| QVQLVESGGGLVQAGGSLRLSCAASGRILVLNAMGWYRQAPGKERELVADITSGGSTYYADSVKGRFTISRDNAKNTVYLQMNSLKPEDTAVYYCAADWNTYPDYQQSYFVSYEYNYWGQGTQVTVSS | low polyreactivity |
| QLQLVESGGGLVQAGGSLRLSCAASGFIFYYNVMGWYRQAPGKERELVAAIRYRGTITYYADSVKGRFTISRDIAKNTVYLQMNSLKPEDTAVYYCARRQRNYYRSSPGGDYWGQGTQVTVSS | low polyreactivity |
| QVQLVESGGGLVQAGGSLRLSCAASGRIFHPYAMGWYRPAPGKERELVAAITNSGGITYADSVKGRFTISRDNAKNTVYLQMNSLKPEDTSVYYCNTATNRFHYKYRKPYDYWGQGTQVTVSS | low polyreactivity |
| QVQLLESGVGLVQAGGSLRLSCAASGNTFYHYAMGLYRQAPGKERELVAAISLSGGSTYYADSVKGRFTISRDNAKNTVYLQMNSLKPEDTAVYYCAADIFYYSSSYGYWGQGTQVTVST | low polyreactivity |
| QVQLVESGGGLVQAGGSLRLSCAASGRIFPFNAMGWYRQAPGKERELVAAISSSGGSTYYADSVKGRFTISRDNAKNTVYLQMNSLKPEDTAVYSCAATRNSDGMGYWGQGTEVTVSS | low polyreactivity |
| QVQLVESGGGLVQAGGSLRLSCAAFPYAMGWYIPAPAKERELVAAISSSGTSTYYADSVKGRFTISRDNAKNTVYLQMNSLKPEDTAVYYCNTALSRLSQHDYWGQGTQVTVSS | low polyreactivity |

| Sequence | polyreactivity (PSR sort gate) |
| --- | --- |
| QVHLVESGGGLVQAGGSLRLSCAASGKIFRSYMGWYRQAPGKERELVASISRRGGSTYYADSEKGRFTISRDNAKNTVTLQMISLKPEDTAVYYCANVVNYPSARYCYWGQGTQVTVSS | high polyreactivity |
| QVQLVESGGGLVQAGGSLRLSCAASGSIFASYVMGWYRQAPGKERELVAAITSRGTSTYYADSVKGRFTISRDNAKNTVYLQMNSLKPEDTAVYYCAARLYGSAPQHEYWGQGTQVTVSS | low polyreactivity |
| QVQLVESGGGLVQAGGSLRLSCAASGRIFYQYAMGWYRPAPGKERELVAAIRWSGGSTYYADSVKGRFTISRDNAKNTVYLQMNSLKQEDTAVYYCNARYPYWGAYYDYDYWGQGTQVTVSS | low polyreactivity |
| QVQLVESGGGLVQAGGSLRLSCAASGSTFRYYVMGWYRPAPGKERELVAAITRGGSTNYADSVKGRFTISRDNAKNTVYLQMNSLKPEDTAVYYCAARGGWKRPFGYQLQYDYWGQGTQVTVSS | high polyreactivity |
| QVQLVESGGGLVQAGGSLRLSCAASGSIFSSYAMGWYRQAPGKERELVAAITTRGDSTRYADSVKGRFTISRDNAKNTVYLQMNSLKPEDTAVYYCAARRRGASKYGYWGQGTQVTVSS | high polyreactivity |
| QDQLVESGGGLVQAGGSLRLSCAASGFISRKNAMGWSRQAPGKERELVATITKSGDTTYYADSVKGRFTISRDNAKNTVYLQMNSLKPEDTAVYYCAAPLYYIGSWDYYVRYIYDYWGQGTQVTVSS | low polyreactivity |
| QVHLVESGGGLVQAGGSLRLSCAASGRTFPYTAMGSYRQAPGKERELVAAISSGGSTNYADSVKGRFTISRDNAKNTVYLQMNSLKPEDTAVYYCATKYQRRPYRYYYWGQGTQVSVSS | low polyreactivity |
| QVQLVESGGGLVQAGGSLRLSSAASGSTSRYYDMGWYRQSPGKVRELVAAITWSGGTTYYADSVKGRFTISRDNAKNTVYLQMNSLKPDDPAVYYCAADASYTYYEFVYWGQGTQVTVSS | low polyreactivity |
| QVQLVESGGGVVQAGGSLRLSCAASGITFEYNAMGWYRQAPGKERELVAAISLSSGSTYYADSVKGRFTISRDNAKNTVYLQMNCLKPEDTAVYYCNADWQSYGYLWHSSLYYYWGQGTQVTVSS | low polyreactivity |
| QVQLVESGGGLVQAGGSLRLSSAASGITFGAYAMGWYRPAPGKERELVAAIRRSDGSTYYADSVKGRFTISRDNAKNTVDLQINSLKPEETAVYYCAADEGLYQGYEYDYWGHGTQVTVSS | high polyreactivity |
| QVQLVESGGGLVQAGGSLRLSCAASGFTFLSYTMGWYSQAPGKERELVASITASGTRTYYADSVKGRFIISRDNAKNTVYLQMNRLKPEDTAVYYFAARWISVWSEGAEHDYWGQGTQVTVSS | low polyreactivity |
| QVQLVESGGGLVQAGGSLRLSCAASGSIFGSYAMGWYRQAPGKERELVAAITSGGSTHYADSVKGRFTISRDNAKNTVYLQMNSLKPEDTAVYYCNAQALRLFWRYDYWGLGTQVTVSS | low polyreactivity |
| QVQLVESGGGLVQAGGSLGLSCAASGFTFHKYAMGWYRQAPGKERELVAAITSSGGSTYYADSVKGRFTISRDNAKNTVYLQMNSLKPEDTAVYYCAVGFYYFSSWYSYDYWGQGTQVTVSS | high polyreactivity |
| QVQLVESGGGLVQAGGSLRLSCAASGRILLHYAMGWYRQAPGKERELVAAITSTGGTTYYADSVKGRFTISRDYAKNTFYLQMNSLKPEDTAVYYCAAKRQDSWGGTYGYWGQGTQVTVSS | low polyreactivity |
| QVQLVESGGGIVQAGGSLRLSCAASGSTIDYNAMGWYRQARGQERELVAAITSGGSTSYADSVKGRFTISRENAKNTVYLQMNSLKPEDTAGYYCAVKRYWLWWYDYWGQGTQVTVSS | high polyreactivity |
| QVQLVESGGGLVQAGGSLRLSCAASGRIFKPYAMGWYRQAPGKERELVASISRRGGSTYYADSVKGRFTISRDNAKNTVYLQMNSLKPEDTAVYDCNASGTYISLGYDYWGQGTQVTVSS | high polyreactivity |
| QFQLVESGGGLVQAGGSLRLSCAASGRIFYYNAMGWYRQAPGKERELVAAITGGGSTNYADSVKGRFTISRDNAKNTVYLQMNSLKPEDTAVYYCAARHYPRNSWGYDYWGQGTQVTVSS | high polyreactivity |
| QVQLVESGGGLVQAGGSLRLSCAASGSIFGTNAMGWYRPAPGKERELVAAINWSGGTTYYADSVKGRFTISRDNAKNTVYLQMNSLKPEDTAVYYCNADIEKSYNYWGQGTQVTVSS | low polyreactivity |
| QVQLVESGGGLVQAGGSLRLSCAASGSIFTINAMGWYRQAPGKERELVAAISFSGGRTYYADSVKGRFTISRDNAKITVYLQMNSLKPEDTAVYYCAAPFYYYGVRFDYWGQGTQVTVSS | high polyreactivity |
| QVQLVESGGGLVQAGGSLRLSCAASGFTIHNYAMGWYRQAPGKERELVARITRSGGTTYYADSVKGRFTISRDNAKNTVYLQMNSLKPEDTAVYYCAARRYGYTSITWYDYWGQGTQVTVSS | high polyreactivity |
| QVQLVESGGGLVQAGGSLRLSCAASGSIFEWYAMGWYRQAPGKERELVAAIDISGGDTYYADSVKGRFTISHDNAKNNVYLQRNSLKPEDTAVYYCAATRPASYAAYDYWGQGTQVTVSS | high polyreactivity |
